Test results reported in publication PMC9629490 (Acta Crystallographica. Section D, Structural Biology, 2022).

B1: human PRPF8 C-terminal fragment encompassing the RH and JM domains (PRPF8^RH-JM, residues 1760-2335) (domain or fragment)
chain: not shown
notes: human PRPF8, C-terminal fragment with the RH and JM domains, residues 1760-2335; no tag is stated for this chain (pIDK donor vector); also called PRPF8^RM-JM; prpf8^1760–2335
B2: human PRPF8 Jab1/MPN-like domain (PRPF8^JM, residues 2064-2335) (domain or fragment)
chain: not shown
notes: human PRPF8, Jab1/MPN-like domain, residues 2064-2335; The GST tag is TEV-cleavable; also called PRPF8 JM domain; source: pET-M11 plasmid, codon-optimized synthetic gene; purified, obtained as described previously (Mozaffari-Jovin et al., 2013)

Target: T1, human SNRNP200^395-2136 (truncated SNRNP200 lacking the first 394 residues) (human, UniProt O75643 395-2136)
T1 construct: In the co-purification with PRPF8^RH-JM the complex was captured on Ni-NTA and the tag was then cut with TEV protease; also called SNRNP200 helicase; source: modified pFL vector; purified, obtained as described previously (Santos et al., 2012); also co-produced with PRPF8^RH-JM in Sf9 cells (baculovirus)
Test: SEC; analytical SEC, Superdex 200 Increase PC3.2/30, 20 mM Tris-HCl pH 7.5, 250 mM NaCl, 0.5 mM DTT; proteins mixed in equimolar ratios, 30 min on ice; fractions analyzed by SDS-PAGE
Conditions: both partners purified

T1 sequence (O75643 395-2136): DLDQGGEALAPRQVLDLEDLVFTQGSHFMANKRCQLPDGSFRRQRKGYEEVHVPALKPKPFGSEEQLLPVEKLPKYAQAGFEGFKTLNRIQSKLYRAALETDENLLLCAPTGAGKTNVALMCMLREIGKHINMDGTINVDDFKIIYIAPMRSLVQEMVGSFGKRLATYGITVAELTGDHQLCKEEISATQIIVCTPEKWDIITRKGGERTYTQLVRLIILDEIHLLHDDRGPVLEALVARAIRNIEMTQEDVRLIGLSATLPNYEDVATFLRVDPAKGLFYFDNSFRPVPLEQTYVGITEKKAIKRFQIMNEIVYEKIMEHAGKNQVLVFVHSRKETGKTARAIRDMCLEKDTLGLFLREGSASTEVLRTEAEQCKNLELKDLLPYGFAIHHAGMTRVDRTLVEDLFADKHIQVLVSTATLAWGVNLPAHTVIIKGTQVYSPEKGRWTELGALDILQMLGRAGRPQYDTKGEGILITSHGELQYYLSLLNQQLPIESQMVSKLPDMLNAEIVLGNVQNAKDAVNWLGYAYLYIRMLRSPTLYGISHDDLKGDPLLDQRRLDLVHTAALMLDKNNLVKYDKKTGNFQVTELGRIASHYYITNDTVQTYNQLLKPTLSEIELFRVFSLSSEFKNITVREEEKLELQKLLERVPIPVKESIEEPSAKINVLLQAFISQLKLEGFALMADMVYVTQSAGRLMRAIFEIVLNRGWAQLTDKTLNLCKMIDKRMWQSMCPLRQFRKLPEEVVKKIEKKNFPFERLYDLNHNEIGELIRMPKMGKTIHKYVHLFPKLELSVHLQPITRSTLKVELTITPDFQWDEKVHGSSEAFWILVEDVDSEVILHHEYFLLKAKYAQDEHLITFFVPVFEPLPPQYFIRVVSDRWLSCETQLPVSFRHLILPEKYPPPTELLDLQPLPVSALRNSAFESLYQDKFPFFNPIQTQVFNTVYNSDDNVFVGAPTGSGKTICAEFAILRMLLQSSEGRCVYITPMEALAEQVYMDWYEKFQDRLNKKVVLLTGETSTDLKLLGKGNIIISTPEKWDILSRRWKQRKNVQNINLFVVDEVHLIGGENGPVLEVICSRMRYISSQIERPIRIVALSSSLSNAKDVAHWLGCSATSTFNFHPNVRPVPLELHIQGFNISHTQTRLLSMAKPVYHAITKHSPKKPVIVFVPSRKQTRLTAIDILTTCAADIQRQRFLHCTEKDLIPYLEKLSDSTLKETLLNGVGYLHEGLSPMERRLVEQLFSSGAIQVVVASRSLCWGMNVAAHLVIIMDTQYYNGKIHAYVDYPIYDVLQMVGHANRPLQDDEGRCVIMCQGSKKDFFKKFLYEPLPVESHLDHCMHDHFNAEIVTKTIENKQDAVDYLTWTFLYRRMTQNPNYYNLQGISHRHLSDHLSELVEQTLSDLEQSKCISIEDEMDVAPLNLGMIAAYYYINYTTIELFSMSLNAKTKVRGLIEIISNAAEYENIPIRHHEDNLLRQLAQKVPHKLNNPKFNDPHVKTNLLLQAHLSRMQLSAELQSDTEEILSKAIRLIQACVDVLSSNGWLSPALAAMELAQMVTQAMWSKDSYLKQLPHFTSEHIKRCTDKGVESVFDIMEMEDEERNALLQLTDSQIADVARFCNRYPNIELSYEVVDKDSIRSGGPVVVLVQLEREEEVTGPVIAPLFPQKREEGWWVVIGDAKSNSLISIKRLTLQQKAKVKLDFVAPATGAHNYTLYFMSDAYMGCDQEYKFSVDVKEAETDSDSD

Binder	binding result
B1	binds
B2	binds
